According to article PMC5605996:

Target: GST fusion of the SET domain of Trithorax, GST-TrxSET (Drosophila)
Test: pull-down; 1 μg GST-E(z)SET or GST-TrxSET immobilised on GSH-agarose, mixed 2 h at 4 °C with pre-cleared reticulocyte lysate holding 35S-Asx or its deletion fragments; washes with 0.6 M NaCl, pH 7.9; SDS-PAGE and autoradiography, densitometry relative to GST

Sequence of GST fusion of the SET domain of Trithorax, GST-TrxSET (Drosophila) (P20659 3583-3709): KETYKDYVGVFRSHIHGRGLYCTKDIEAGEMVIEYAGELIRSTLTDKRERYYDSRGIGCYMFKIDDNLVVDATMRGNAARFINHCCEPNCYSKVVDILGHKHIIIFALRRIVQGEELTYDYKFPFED

full-length Additional sex combs (Asx), 35S-methionine-labelled, in vitro translated, A(1-1669) (from UniProt Q9V727 1-1669) (natural protein)
fold weaker than the Asx-E(z)(SET) interaction: 5 fold
